Laboratory results reported in PMC5625703.

Biological target: pGBKT7-53 (control bait)
Test: two-hybrid; β-galactosidase activity assay (Yeast β-galactosidase Assay Kit) on a colony from a DDO plate, 37 °C, OD 420 nm; average of three measurements

Q: “pGADT7-T (control prey) (natural protein)” was tested. Which β-galactosidase activity did it give?
A: 401 units
